Source: the DeepSol protein solubility set

Assay: soluble on expression in E. coli; label from the status in PepcDB or PDB records

Row | Sequence | soluble on expression in E. coli
1 | MAKEVWRFIDSGYCPPAFNMALDEALLDWHSEGKIPPTIRFYGWNPPTLSIGYFQKVEKEIDLEAVKRHGLGFVRRPTGGRGVLHDKELTYSVIVSESHPAMPKTVTEAYRVISQGILEGFRYLGLDAYFAVPRTEEEKADLRSPRSAVCFDAPSWYELVVEGRKIAGSAQTRQKGVILQHGSILLDLDEDLLFSLFKYPNERVKERLQRDFKKKAVAINELTSRTVTIEEAKEAFYKGFEKGLNIVLEPYTLTAEERAYVEELARTKYESDEWNFKR | not soluble
2 | GAMGSYDWLPRLSKENFNAAPVTCFPHAPGCEVWDNLGVGMKVEVENTDCDSIEVIQPGQTPTSFWVATILEIKGYKALMSYEGFDTDSHDFWVNLCNAEVHSVGWCATRGKPLIPPRTIEHKYKDWKDFLVGRLSGARTLPSNFYNKINDSLQSRFRLGLNLECVDKDRISQVRLATVTKIVGDRLFLRYFDSDDGFWCHEDSPIIHPVGWATTVGHNLAAPQDYLERMLAGREAMIEVHEDDATIELFKMNFTFDEYYSDGKTNSFVEGMKLEAVDPLNLSSICPATVMAVLKFGYMMIRIDSYQPDASGSDWFCYHEKSPCIFPAGFCSVNNISVTPPNGYDSRTFTWEGYLSDTGAVAAGQHLFHDIIPDHGFEVGMSLECADLMDPRLVCVATVARVVGRLLKVHFDGWTDEYDQWLDCESADIYPVGWCVLVNHKLEGPPR | soluble
3 | MSEEVIKFTSPRKQVKEEFKLIDTQKIADVRIQWFGKFTKNREKIMFCWKFFPGDKLQNEGIDFLVGHIKAYPHPTYNDFEPFEFDFNVNGAEHKETREYEYLTKNDWCCATYECELTPFRLYGNMFGASTKHDGVLVVEKKKLNVSKAFLSYHSDFFSDLFSREAHSKDIPIEGVTYFEFGLLISCIHPDHTVFPNDETVSKLLSLADRFSMRAVYRMVEHHLLHSSSNMGIREVIKTADQYGMKELMEKSISRITSTEKVMDLIQSAEFPELSAETKAKLMDCMAKMMR | not soluble
4 | MQLKTEVFLVEKEILVYIQTKSIGIEDNSIKLKMTPLLKKFANIGDKVYLKHSTFMLPTKIKAKKEDEVLLEFPSLTPEKPLGDRRNVRVLSDPENPVKVRFNEITKEVYDISEVGFSIKCGMEEIDEILKNKEISEVEIYLPNLEEWIKGSARLVNVREFENGDILCGYELFLDTPDEVKVRFYIYERVKEILKGEK | not soluble
5 | TKDFSWNTTFNISHNKNEIVTLDGMQTEIISGTQIRKVGKSYRTFYMIEFAGINPETGAPQFYTNDLDENGNYIKEITEKYSEANAIVLDKHAEPNVIGGLSNTLRYKWFDLNFMFSYQFGGYSYDNWAQKTEHGGNDLEANIPTYYRDSWKQPGDITKYELFIESPDVAMNKSTTTRRLHSSDFIRLKTLTFGITLPQVWTQKIGVNNVRVYASANNLWTWAAYDYYDPEAVSGGSAIWGTPPLKTVTFGLSVNF | not soluble
6 | SLERLIRGMQYHYQWLTPFDAKRTTVVCLHGFTGTLATFAAVFPSQTPYNVLGIDLPGHGATASLVAPERYTMKQVCHDIAELTESLNLPCFCLLGYSMGARTALGFALHYPQKVQHLLLESGSPGLATAAERQARICQDHRLAERLLEEPLVDFIDFWQELPLFQTQKALSVAQQMAIRQERLSQSAFGLVSSLWYMGTGAQESYWERLAELQPIPTDLLVGGEDQKFIGIAKKMQARQPLLRLTIFPEAGHCIHLEQPTIFYEKVTALLEGAI | soluble
7 | MVFSDQQLFEKVVEILKPFDLSVVDYEEICDRMGESMRLGLQKSTNEKSSIKMFPSYVTKTPNGTETGNFLALDLGGTNYRVLSVTLEGKGKSPRIQERTYCIPAEKMSGSGTELFKYIAETLADFLENNGMKDKKFDLGFTFSFPCVQKGLTHATLVRWTKGFSADGVEGHNVAELLQTELDKRELNVKCVAVVNDTVGTLASCALEDPKCAVGLIVGTGTNVAYIEDSSKVELMDGVKEPEVVINTEWGAFGEKGELDCWRTQFDKSMDIDSLHPGKQLYEKMVSGMYLGELVRHIIVYLVEQKILFRGDLPERLKVRNSLLTRYLTDVERDPAHLLYNTHYMLTDDLHVPVVEPIDNRIVRYACEMVVKRAAYLAGAGIACILRRINRSEVTVGVDGSLYKFHPKFCERMTDMVDKLKPKNTRFCLRLSEDGSGKGAAAIAASCTRQN | soluble
8 | GIVATRYRDFSPLLEALTQLLFYVTPIVWTTETLYSQGGAVSERAKLAMLNPLYHYMEVIRAPLIGAPIHP | not soluble
9 | MQKDALNNVRITDEQVLMTPEQLKAAFPLSLAQEAQIAQSRGIISDIIAGRDPRLLVVCGPCSIHDPETALEYARRFKALAAEVSDSLYLVMRVYFEKPRTTVGWKGLINDPHMDGSFDVEAGLKIARQLLVELVNMGLPLATEALDPNSPQYLGDLFSWSAIGARTTESQTHREMASGLSMPVGFKNGTDGSLATAINAMRAAAQPHRFVGINQAGQVALLQTQGNPHGHVILRGGKAPNYSPADVAQCEKEMEQAGLRPSLMVDCSHGNSNKDYRRQPAVAESVVAQIKDGNRSIIGLMIESNIHEGNQSSEQPRSEMKYGVSVTDACISWEMTDALLREIHKDLSGQLAVRVA | not soluble
10 | MDQVVVFQKMFEQVRKEQNFSWFYSELKHHRIAHYIYYLATDNIRIITHDDTVLLLRGTRNLLKVSTTKNPAKIKEAALLHICGKSTFREYCSTLAGAGVFRWVTDVNHNKRSYYAIDNTLLYIEDVENNKPLILEHHHHHH | soluble
11 | MTFELKYTDRSYLPDQFKAISGNPPVEWKVTNNLVEYPEALRYMQERVENILAQNAHEQVWLLEHPSLYTAGTSAKKKDLLTPHLFPVYEAGRGGEFTYHGPGQRIAYIMLDLKRRRQDIRAFISALEEWIIQMLAKFNIKGERREDRVGVWVQRHSCQSTQNSLYSEDKIAAIGIRVRKWVSFHGVSINVDPNLAHYSGIVPCGITNHGVTSFLDLGLPTKMHDIDIALKQSFEQIFGPIIDIS | not soluble
12 | MAHHHHHHMSSKRTEGTAADEERRRTSAASSGSSSVSSTDSDEASSSVSDSSSSGSGSSSDSESSDSERPSSTPQRQSAAAAERATSTQQLQQQRHVQLNPELRFERPDKEYIPLPPLRDMQDMVKVLFLLSTDKKRYPDGRHRTLDYFRVAVEMFVTEVRQEYKRQYQQAQRNGRAMQRFTWKNSGELAICFACCCDNVKLLYDSLQPGPLKPLWDAFVGQLPPMLIVQSRVPETMLSSQTYHTKYMDWVKGGTRYGGEQSTANVRFPSVADRRVKVETYLRSGAGYKIEAVQVGSTPAAPAAVPAAVAPRPSLAAAAAPMQALETRAPFAGRLPGTGSAKVPVAPGVGGPRPPVKVPMKHVGGGVAHGSVTTAAAPPLASTSVKQMPPEMKHLFWLSVLAHVKGGEASRAFPDDRLEALPGLLRLCEMTEHTEEMCILMDVLAASSSGVQTVFERLGGLLSFRRFASHFIQSEEAEPLMQLVEQLARWRVAAWGSTSQQAWQTDMNQRRTRDLMWLRTLPLIPEAKRAAWGALLLVMEQRYIFKAPRPDDTTAVDNPLKRRRSEVELGDLHAVLSDNVDMQRWVVPRVNVFSAVRLPVELRVPPLCTKLEENTVRFLNAKREYAEKMQVTWRERLEKILSAQPRAPGPAVPVPLWYDPYALLRVASPQP | soluble
13 | MKSQPYTASSVTSTSTTHHPWMPISLREPPSKFQKLSTSDAAPLHNVCSSLKMKSTKPSRKRPSPKESDLPPLPSISTLFDSGSSSHSSSSSSNSSYGSYCQFSPEGSYTMYHWPMNYIPYVSPDVTITATTSTSTNAMASPDPIMLSSPPKQPTIEHTPINQPLFIQTADYPYDYSAPDPTGGYPSSATINANQLLLRPVPNGHV | not soluble
14 | IDFRGIEKQGGRVLIDVSDTGIPIDVTQVGKEIVVNFLNTKIPLNLMKRYDVSDFHSPVQIITMQQEGKKVRMTILSKGDYGHFVYQVNKQFMVDVFPLTAEEIR | not soluble
15 | MKTFSDRWRQLDWDDIRLRINGKTAADVERALNASQLTRDDMMALLSPAASGYLEQLAQRAQRLTRQRFGNTVSFYVPLYLSNLCANDCTYCGFSMSNRIKRKTLDEADIARESAAIREMGFEHLLLVTGEHQAKVGMDYFRRHLPALREQFSSLQMEVQPLAETEYAELKQLGLDGVMVYQETYHEATYARHHLKGKKQDFFWRLETPDRLGRAGIDKIGLGALIGLSDNWRVDSYMVAEHLLWLQQHYWQSRYSVSFPRLRPCTGGIEPASIMDERQLVQTICAFRLLAPEIELSLSTRESPWFRDRVIPLAINNVSAFSKTQPGGYADNHPELEQFSPHDDRRPEAVAAALTAQGLQPVWKDWDSYLGRASQRL | not soluble
16 | SDYFRSCWGPRSPAGHRVRGSDVAGRQDGLLWYKDAGQLVTGEFSMAVVQANNLLEDQSQVESGALSMAEPGPQGTFIGVYDGHGGPETARFINDHMFHHLRRFATEHKCMSTDVIRKAFQATEEGFLSLVSKQWSLKPQIAAVGSCCLVGVICSGTLYVANLGDSRAVLGRFVKSTGEVVATQLSSEHNACYEEVRQELQASHPDDPQIVVLKHNVWRVKGLIQISRSIGDVYLKRPEYNREPLHSKFRLRETFKRPILSSEPAIAVHQIQPNDHFVIFASDGLWEHLSNQEAVDLVQNNPRNGIARRLVKVAMQEAAKKREMRYSDLKKIDRGVRRHFHDDITVIVVFLDSNAISKANWSRGPSVSLRGGGVTLPANSLAPFSTPTVLSSTY | soluble
17 | MGSDKIHHHHHHMEFSQLRIFQAVAEEGSVTRAAERLHRVPSNLSTRLRQLEEQLGVELFLRERQRLQLSPAGKVLLDYANRMSALRDEALGAVRGGQPAGDFVLGTMYSTAATHLPALLARYHQSYPQVNLQVRAAPSGELLEGLLNHTLDAALVDGPPSLAGLDGVPLCDEQLVLITSPEHPAVLTAKDVAGKAVFTFRQGCSYRMRLEAWYAHAHTPMGRVMEIESYQSMLACVIAGAGVAMMAQSMLDSLPGRDRVRVHSLQAPFDQAVTWLMWRQGMRGANLQAWIDLQQSETINQSSECAATA | not soluble
18 | MGSDKIHHHHHHMRKISIVIPVYNTEKYLKLSVDSVLSQSYQDWELILVDDGSKDGSGAICDKYASEDSRIKVYHTVNQGVTAARGYGVEQSTGEWICFLDADDTLADDALQVMLGKSADCDIVIGNKRIVSGNDVTEEWMNQDDRQLQAVEFLDGLIRNKISQYITGRIFRRILFDNGTICIPRELIMAEDFIMNVQLGNKAKKIAVIRDMVYGYHVYGESVSHTFRTNLEYESRFCDCLFSALKTGGYYEEVKEAFTFQKVRALKSAFMAQQGRVNLRHPFLQEVRKEAKSIGLSRGWKLFLYLLPLKYIGYIFFRSLNK | not soluble
19 | MGNKLFVLDLGEIRVDENFIIANSTFVTPQKPTVSSRLIDIPVSAYLIQCTDATVLYDTGCHPECMGTNGRWPAQSQLNAPYIGASECNLPERLRQLGLSPDDISTVVLSHLHNDHAGCVEYFGKSRLIAHEDEFATAVRYFATGDHSSPYIVKDIEAWLATPRNWDLVGRDERERELAPGVNLLNFGTGHASGMLGLAVRLEKQPGFLLVSDACYTATNYGPPARRAGVLHDTIGYDRTVSHIRQYAESRSLTVLFGHDREQFASLIKSTDGFYE | soluble
20 | MIMGFWNGVAKAAKAVGEGMIEAGNEHKALKMEYAEKSSEELHEIVKSDGFFKNSTREKSAAYAILKERGEV | not soluble
21 | MKFPGQRKSKHYFPVHARDPLVSQAQEAKKMSRTHIIGIDQTLVDIEAKVDDAFIEKYGLSKGHSLVIDNDKAEMLYNELKDNNMISNEFAGGTIGNTLHNYSVLADDKSTLLGVMSEDIHIGSYSYRYLCNTSSRMDLNYLQPVPGAIGRCFALISEDGERTFAISEGDMNQLRAESIPEKIFKNASALVLTAYLVRCKEGDPMPEATMKAIEYAKKYDVPVVLTMGTKFVVQDDPQYWRDFLNDHVTVVAMNEEEGEALTGATDPLEAANKTLEWVDLVLCTAGPVGLYMAGYTEDSAKRETSLPLLPGTIAEFNQFEFSRPAVKDSCENPIKVFSHISPYMGGPEKIKNTNGAGDGALSALLHDMAANHYHRNNVPNSSKHQHSFLTYSSFSQVCKYSNRVSFEVLAQHSPRLSRGLPEREDSLEEAYWER | not soluble
